Measured values: patent publication US20260125454A1 (SHANGHAI JUNSHI BIOSCIENCES, published 2026)
Changes are numbered by the printed parent chain.

T1: Biotin-huCGRPaSA (human, not fully specified; biotin (position not given))
T1 construct: exact construct ('aSA') not explained; also called Biotin CGRPaSA; full-length (1-37) CGRP
T1 peptide: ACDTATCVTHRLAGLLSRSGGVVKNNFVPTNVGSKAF

B1: hu6 (antibody, V domains shown)
VH: QVQLVQSGAEVKKPGASVKVSCKASGYTFTDYNMHWVRQAPGQGLEWMGYIFPYNGVAVYNRKFRSRVTLTIDTSSSTAYMELRSLRSDDTAVYYCAREGLGGYWGQGTLVTVSS
VL: EIVLTQSPATLSLSPGERATLSCKASQNIDFDGYAYMNWYQHKPGQAPRVLIYSVFNLESGIPARFSGSGSGTDFTLTISSLEPEDFAVYYCQQSHEVPYTFGQGTKLEIK
notes: 1B2 HC-1/1F5 LC1-2
B2: hu123 (antibody, V domains shown)
VH: B1 VH with Y50N, F52Y, V57G, A58T, R62Q, R65N, S66N, I72V
VL: B1 VL
notes: 2B8 HC1-2/1F5 LC1-2
B3: hu200 (antibody, V domains shown)
VH: B1 VH with F52Y, V57H, A58T, R62Q, S66N, L70M, I72V, R98K
VL: B1 VL with H42Q
notes: 3H10 HC-1/1F5 LC1-1
B4: hu42 (antibody, V domains shown)
VH: QVQLVQSGAEVKKPGASVKVSCKASGYTFTDFNMHWVRQAPGQRLEWMGYIYPYNGDVVYNQNFTNRVTLTVDTSSSTAYMELSSLRSEDTAVYYCAREGLGGYWGQGTLVTVSS
VL: B1 VL with F31Y, M37L, H42Q, H96N, V98F
notes: 1F5 HC-2/1A2 LC2-3
B5: hu187 (antibody, V domains shown)
VH: B4 VH with A24T, F32Y, Y52S, G56A, D57G, V58T, V59A, N63K, T65K, N66F
VL: B1 VL with H42Q
notes: 3E5 HC-4/1F5 LC1-1
B6: hu175 (antibody, V domains shown)
VH: QVQLVQSGAEVKKPGASVKVSCKASGYTFTDYNMHWVRQAPGQGLEWMGYISPYNGGTAYNQKFKFRVTLTVDTSSSTAYMELSRLRSDDTVVYYCAREGLGGYWGQGTLVTVSS
VL: B1 VL
notes: 3E5 HC-3/1F5 LC1-2
B7: hu198 (antibody, V domains shown)
VH: B1 VH with F52Y, V57H, A58T, R62Q, S66N, L70M, I72V, R98K
VL: B1 VL with F31Y, M37L, H42Q, H96N, V98F
notes: 3H10 HC-1/1A2 LC2-3
B8: hu161 (antibody, V domains shown)
VH: B6 VH with G44R, R85S, D89E, V92A
VL: B1 VL with H42Q
notes: 3E5 HC-2/1F5 LC1-1
B9: hu19 (antibody, V domains shown)
VH: B1 VH with G44R, I72V, R84S, D89E
VL: B1 VL
notes: 1B2 HC-2/1F5 LC1-2
B10: hu16 (antibody, V domains shown)
VH: B1 VH with G44R, I72V, R84S, D89E
VL: B1 VL with F31Y, M37L, H42Q, H96N, V98F
notes: 1B2 HC-2/1A2 LC2-3
B11: hu57 (antibody, V domains shown)
VH: B4 VH with R44G, S84R, E89D
VL: B1 VL with H42Q
notes: 1F5 HC-3/1F5 LC1-1
B12: hu188 (antibody, V domains shown)
VH: B6 VH with A24T, G44R, G56A, R85S, D89E, V92A
VL: B1 VL
notes: 3E5 HC-4/1F5 LC1-2
B13: hu55 (antibody, V domains shown)
VH: B4 VH with R44G, S84R, E89D
VL: B1 VL with F31Y, M37L, H42Q, H96N, V98F
notes: 1F5 HC-3/1A2 LC2-3
B14: hu18 (antibody, V domains shown)
VH: B1 VH with G44R, I72V, R84S, D89E
VL: B1 VL with H42Q
notes: 1B2 HC-2/1F5 LC1-1
B15: hu149 (antibody, V domains shown)
VH: B6 VH with A24T, G44R, R85S, D89E, V92A
VL: B1 VL
notes: 3E5 HC-1/1F5 LC1-2
B16: hu162 (antibody, V domains shown)
VH: B6 VH with G44R, R85S, D89E, V92A
VL: B1 VL
notes: 3E5 HC-2/1F5 LC1-2
B17: hu31 (antibody, V domains shown)
VH: B4 VH with T30I
VL: B1 VL with H42Q
notes: 1F5 HC-1/1F5 LC1-1
B18: hu122 (antibody, V domains shown)
VH: B1 VH with Y50N, F52Y, V57G, A58T, R62Q, R65N, S66N, I72V
VL: B1 VL with H42Q
notes: 2B8 HC1-2/1F5 LC1-1
B19: hu107 (antibody, V domains shown)
VH: B6 VH with Y50N, S52Y, A59V, K65N, F66N, V92A
VL: B1 VL with F31Y, M37L, H42Q, H96N, V98F
notes: 2B8 HC1-1/1A2 LC2-3
B20: hu159 (antibody, V domains shown)
VH: B6 VH with G44R, R85S, D89E, V92A
VL: B1 VL with F31Y, M37L, H42Q, H96N, V98F
notes: 3E5 HC-2/1A2 LC2-3
B21: hu97 (antibody, V domains shown)
VH: B4 VH with F32Y, I51V, D57G, V58S, V59A, N63K, T65K, N66S
VL: B1 VL
notes: 2A2 HC-1/1F5 LC1-2
B22: hu109 (antibody, V domains shown)
VH: B6 VH with Y50N, S52Y, A59V, K65N, F66N, V92A
VL: B1 VL with H42Q
notes: 2B8 HC1-1/1F5 LC1-1
B23: hu174 (antibody, V domains shown)
VH: B6 VH
VL: B1 VL with H42Q
notes: 3E5 HC-3/1F5 LC1-1
B24: hu133 (antibody, V domains shown)
VH: B6 VH with Y50N, S52Y, G56A, A59V, K65N, F66N, V92A
VL: B1 VL with F31Y, M37L, H42Q, H96N, V98F
notes: 2B8 HC1-3/1A2 LC2-3
B25: hu148 (antibody, V domains shown)
VH: B6 VH with A24T, G44R, R85S, D89E, V92A
VL: B1 VL with H42Q
notes: 3E5 HC-1/1F5 LC1-1
B26: hu172 (antibody, V domains shown)
VH: B6 VH
VL: B1 VL with F31Y, M37L, H42Q, H96N, V98F
notes: 3E5 HC-3/1A2 LC2-3
B27: hu44 (antibody, V domains shown)
VH: B4 VH
VL: B1 VL with H42Q
notes: 1F5 HC-2/1F5 LC1-1
B28: hu96 (antibody, V domains shown)
VH: B4 VH with F32Y, I51V, D57G, V58S, V59A, N63K, T65K, N66S
VL: B1 VL with H42Q
notes: 2A2 HC-1/1F5 LC1-1
B29: hu135 (antibody, V domains shown)
VH: B6 VH with Y50N, S52Y, G56A, A59V, K65N, F66N, V92A
VL: B1 VL with H42Q
notes: 2B8 HC1-3/1F5 LC1-1
B30: hu110 (antibody, V domains shown)
VH: B6 VH with Y50N, S52Y, A59V, K65N, F66N, V92A
VL: B1 VL
notes: 2B8 HC1-1/1F5 LC1-2
B31: hu83 (antibody, V domains shown)
VH: B4 VH with T30I, G56A, N63D
VL: B1 VL with H42Q
notes: 1F5 HC-5/1F5 LC1-1
B32: hu120 (antibody, V domains shown)
VH: B1 VH with Y50N, F52Y, V57G, A58T, R62Q, R65N, S66N, I72V
VL: B1 VL with F31Y, M37L, H42Q, H96N, V98F
notes: 2B8 HC1-2/1A2 LC2-3

Biological target: T1, Biotin-huCGRPaSA
Assay: ELISA, supernatant; relative to chimeric C245
Outline: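 Plates coated with biotin-CGRPaSA at 1.0 μg/mL (90 min, 37°C) and blocked with 2% BSA. Humanized antibodies and chimeric C245 reference, 2.5-fold serial dilutions from 1000 ng/mL, bound 60 min at 37°C. Detection by HRP anti-human IgG (Fc), TMB 15 min, read at 450/620 nm.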

Row | Binder | Relative binding activity, %
1 | B1 | 93%
2 | B2 | 96%
3 | B3 | 43%
4 | B4 | 55%
5 | B5 | 67%
6 | B6 | 82%
7 | B7 | 39%
8 | B8 | 88%
9 | B9 | 73%
10 | B10 | 39%
11 | B11 | 78%
12 | B12 | 46%
13 | B13 | 18%
14 | B14 | 67%
15 | B15 | 91%
16 | B16 | 81%

Row | Binder | Relative binding activity, %
17 | B17 | 79%
18 | B18 | 97%
19 | B19 | 73%
20 | B20 | 26%
21 | B21 | 82%
22 | B22 | 78%
23 | B23 | 84%
24 | B24 | 81%
25 | B25 | 100%
26 | B26 | 94%
27 | B27 | 99%
28 | B28 | 82%
29 | B29 | 98%
30 | B30 | 85%
31 | B31 | 102%
32 | B32 | 28%
